This note sets out measurements from PMC11322631.

The target of test [1] is green-light absorbing proteorhodopsin A18L variant with uncleavable N-terminal signal peptide (marine γ-proteobacteria). As to the kind of experiment: cryo-EM structure; single particle cryo-EM of purified oligomers in 20 mM BTP-HCl pH 7.5, 150 mM NaCl, 0.25% Cymal-5; GPR-A18L at 4.2 mg/mL, PO at 4.0 mg/mL.
For test [2] the target is unchanged. Briefly: native gel or EMSA; BN-PAGE, NativePAGE 4-16% Bis-Tris gel, about 5 µg protein, 0.4% Cymal-5 and 0.25% Coomassie G-250 in the sample, run in ice water. For orientation: A gel shift assay detects complexes by their altered migration in electrophoresis.
In test [3] the target is proteoopsin, retinal-free N-terminally truncated green-light absorbing proteorhodopsin lacking the signal peptide (marine γ-proteobacteria). Briefly: cryo-EM structure; single particle cryo-EM of purified oligomers in 20 mM BTP-HCl pH 7.5, 150 mM NaCl, 0.25% Cymal-5; GPR-A18L at 4.2 mg/mL, PO at 4.0 mg/mL.

Where “and” joins values, the source holds several entries; their conditions need not be identical. Identical values can stand only once.

One may read the stoichiometry N as a count of units in the complex or per binding partner. Turning to “green-light absorbing proteorhodopsin A18L variant with uncleavable N-terminal signal peptide (natural protein)”, the stoichiometry N in test [1] is 5 and 6; in test [2], 5 and 6.
In the case of “proteoopsin, retinal-free N-terminally truncated green-light absorbing proteorhodopsin lacking the signal peptide (natural protein)”, in test [3], the stoichiometry N worked out at 5.
